In patent publication US20250066487A1 (ABL BIO, published 2025):

How the values were obtained:
[1] = molecular target: T1, human 4-1BB expressed on GloResponse NFκB-luc2/4-1BB Jurkat cells (Promega) (human, UniProt Q07011 24-255); experiment: cell-based or functional assay
[2] = molecular target: T1, human 4-1BB expressed on GloResponse …; experiment: cell-based or functional assay; remark: listed apart in the source
[3] = molecular target: T2, human 4-1BB-Fc protein (Sino Biological) (human, UniProt Q07011 24-186); experiment: ELISA, plate coated with human 4-1BB-Fc, detection with anti-human IgG-HRP
T2 construct: Bought protein; not shown: Fc part of the bought fusion protein
T2 sequence (Q07011 24-186 limits assumed): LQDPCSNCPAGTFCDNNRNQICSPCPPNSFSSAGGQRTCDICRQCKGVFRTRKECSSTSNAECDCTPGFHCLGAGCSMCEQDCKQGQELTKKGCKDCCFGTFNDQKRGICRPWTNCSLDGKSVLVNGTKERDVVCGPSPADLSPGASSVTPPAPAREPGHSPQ

T1 sequence (Q07011 24-255 limits assumed): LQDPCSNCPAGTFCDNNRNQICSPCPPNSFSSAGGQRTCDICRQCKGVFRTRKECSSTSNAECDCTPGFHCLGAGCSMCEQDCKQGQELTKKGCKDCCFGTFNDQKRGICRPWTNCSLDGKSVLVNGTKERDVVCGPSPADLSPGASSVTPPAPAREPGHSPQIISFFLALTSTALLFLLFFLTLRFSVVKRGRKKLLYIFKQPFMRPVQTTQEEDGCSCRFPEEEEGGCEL

B1: Urelumab (antibody, V domains shown)
VH: QVQLQQWGAGLLKPSETLSLTCAVYGGSFSGYYWSWIRQSPEKGLEWIGEINHGGYVTYNPSLESRVTISVDTSKNQFSLKLSSVTAADTAVYYCARDYGPGNYDWYFDLWGRGTLVTVSS
VL: EIVLTQSPATLSLSPGERATLSCRASQSVSSYLAWYQQKPGQAPRLLIYDASNRATGIPARFSGSGSGTDFTLTISSLEPEDFAVYYCQQRSNWPPALTFGGGTKVEIK
- EC50, FcγRIIb-dependent 4-1BB bioassay [1]: 0.239 nM
- Fold of induction (RLU), FcγRIIb-dependent 4-1BB bioassay [1]: 190 fold (RLU)
- EC50, FcγRIIb-independent 4-1BB bioassay [2]: 0.537 nM
- Fold of induction (RLU), FcγRIIb-independent 4-1BB bioassay [2]: 14.1 fold (RLU)

B2: AB41 (antibody, human IgG4 S228P, kappa, V domains shown)
VH: QVQLQQSGAEVIKPGASVKLSCKASGYTFSSYWMHWVRQAPGQGLEWIGEINPGNGHTNYNEKFKSRATLTGDTSTSTVYMELSSLRSEDTAVYYCARSFTTARAFAYWGQGTLVTVSS
VL: DIVMTQSPAFLSVTPGEKVTITCRASQTISDYLHWYQQKPDQAPKLLIKYASQSISGIPSRFSGSGSGTDFTFTISSLEAEDAATYYCQDGHSFPPTFGQGTKLEIKR
notes: Full-length IgG form; also called anti-4-1BB antibody AB41 (full-length IgG form)
- EC50 [3]: 0.2 nM

B3: 1A12 (antibody, human IgG4 S228P, lambda, V domains shown)
VH: EVQLLESGGGLVQPGGSLRLSCAASGFTFSGYDMSWVRQAPGKGLEWVSVIYPDDGNTYYADSVKGRFTISRDNSKNTLYLQMNSLRAEDAAVYYCAKHGGQKPTTKSSSAYGMDGWGQGTLVTVSS
VL: QSVLTQPPSASGTPGRRVTISCSGSSSNIGNNYVTWYQQLPGTAPKLLIYADSHRPSGVPDRFSGSKSGTSASLAISGLRSEDEADYYCATWDYSLSGYVFGGGTKLTVLG
notes: Full-length IgG form; also called 1Al2; anti-4-1BB antibody 1A12 (full-length IgG form)
- EC50 [3]: 0.18 nM
